Measured values reported in the supplement of paper PMC10567573.

B1: TPD52L2 (parent)
chain: EAEEEELRAELTKVEEEIVTLRQV
B2: SFRS1 (parent)
chain: YSPRRSRGSPRYSPRHSRSRSRT

Variants of: B1
Assay: protein stability index of a GFP-peptide fusion (GPS, HEK-293T) (PSI 1-6); higher = more stable
Details: c terminus: a fixed tail appended
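Also: lentivirally expressed fusions sorted by FACS into six bins by GFP to DsRed ratio, PSI derived from sequencing read proportions per bin multiplied by bin number.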

Protein stability index: each site, then its substitutions
V19: G 4.79 | C 3.78 | R 3.88
K13: V 4.33 | Y 4.08 | G 5.18
L11: A 5.8 | W 5 | S 5.65 | E 4.83
E16: H 3.87 | W 2.66 | T 4.33
L21: T 5.65 | D 5.73 | H 4.08
E6: S 3.12
A9: F 2.4 | K 3.68 | P 5.11
I18: C 4.55
E10: N 4.91 | R 4.11 | F 3.64
E15: M 2.91 | L 1.83
R8: E 4.84 | P 5.43
E3: G 3.52 | Q 2.73
E1: W 2.01
R22: K 3.8 | G 3.79 | I 2.44
V24: N 4.72 | M 3.42
T20: R 3.3 | M 2.92
E5: P 4.18 | L 2.64 | V 1.62
T12: W 2.1
A2: I 2.67
Q23: S 3.61
E4: V 3.63
L7: M 5.21
V14: P 5.75 | Q 5.59 | R 5.35 | G 3.76

Variants of: B2
Assay: as above
Details: c terminus: native

Protein stability index of substitutions, site by site:
P10: D 4.25 | V 3.69 | K 4.4 | G 3.37 | H 4.38 | M 3.73 | R 4.2 | E 3.6 | T 4.51 | C 3.45 | I 3.41 | Y 3.67 | A 4 | S 4.35 | L 3.61 | F 3.07 | Q 3 | N 4.31 | W 3.4
R18: Q 3.27 | A 3.64 | F 2.42 | P 2.52 | I 3.43 | V 3.68 | M 2.87 | T 3.46 | W 2.93 | E 2.44 | L 3.44 | S 2.9 | Y 3.07 | G 3.27 | D 2.77 | H 3.28 | C 2.61 | K 2.94 | N 3.5
S21: Y 4 | G 2.67 | V 3.49 | D 3.79 | M 3.94 | C 3.06 | T 3.34 | W 4.19 | I 3.28 | F 3.95 | E 3.8 | L 3.23 | H 3.79 | A 3.41 | P 4.3 | K 3.79 | N 3.98 | Q 3.62 | R 4.2
T23: N 3.17 | S 3.4 | E 4.56 | K 4.73 | Q 2.61 | P 4.23 | R 4.22 | F 4.22 | L 1.96 | D 3.32 | Y 4.44 | W 3.79 | M 3.33 | V 3.69 | H 2.64 | I 4.04 | C 3.5
S19: E 3.14 | I 3.8 | D 3.75 | Q 3.89 | Y 3.96 | K 3.88 | C 3.71 | R 3.55 | N 4.23 | G 3.95 | H 3.89 | W 3.76 | V 3.73 | A 2.98 | T 3.68 | L 3.79 | M 2.9 | F 3.75 | P 4.39
R20: Y 2.9 | W 1.77 | A 3.68 | E 4.48 | F 2.71 | N 4.44 | M 3.4 | V 3.66 | H 4.12 | K 3.85 | L 4.08 | G 3.79 | C 3.49 | S 4.21 | P 3.81 | Q 4.04 | I 3.69 | T 3.6 | D 4.36
P14: N 4.28 | L 3.56 | E 4.04 | G 4.46 | Y 3.64 | H 4.16 | I 4.15 | W 3.22 | S 3.54 | F 3.21 | C 1.97 | D 3.46 | M 3.52 | T 3.89 | R 4.48 | V 4.03 | A 4.03 | K 4.57
Y12: V 4.18 | F 3.7 | W 4.43 | T 4.27 | K 3.73 | D 4.38 | P 3.99 | R 4.25 | C 3.61 | E 4.47 | Q 4.43 | I 3.72 | S 4.17 | M 3.62 | H 3.28 | L 4.03 | N 4.21 | A 3.89
R22: L 4.25 | N 3.46 | K 3.77 | P 4.04 | E 4.25 | Y 3.9 | I 3.8 | S 3.5 | C 3.62 | A 2.02 | M 3.8 | D 3.85 | F 3.58 | G 3.27 | Q 4.06 | W 3.32 | H 4.14 | V 4.05 | T 3.97
S17: P 4.19 | Y 3.6 | D 3.75 | N 3.81 | C 4 | G 3.53 | M 4.06 | F 4.13 | R 4.49 | E 3.9 | K 4.35 | H 3.77 | A 4.15 | V 3.73 | W 3.69 | L 3.69 | Q 4 | I 4.04 | T 4.05
S13: C 1.35 | P 3.55 | I 3.71 | H 3.62 | N 3.64 | Y 3.13 | E 4.01 | R 4.11 | F 3.59 | T 3.63 | M 3.82 | V 3.37 | K 4.64 | D 3.72 | Q 3.76 | A 3.41 | W 2.9 | G 4.41 | L 3.89
H16: D 4.05 | S 4.5 | I 3.95 | A 4.81 | Y 4.45 | Q 4.02 | W 3.14 | R 4.5 | E 3.47 | V 3.93 | T 4.27 | P 4.35 | C 3.96 | M 3.95 | L 4.35 | K 4.35 | G 4.31 | N 4.1 | F 3.83
S9: R 4.37 | M 3.07 | P 3.86 | D 3.99 | L 3.38 | E 3.71 | K 3.83 | G 4.24 | Y 3.43 | F 3.35 | C 1.83 | W 2.29 | T 3.74 | A 3.94 | Q 4.24 | N 4.23 | I 3.1 | H 3.16 | V 3.8
R15: M 3.48 | C 2.64 | F 2.17 | P 2.12 | H 4.39 | V 2.65 | D 3.16 | Q 3.39 | A 3.36 | E 3.56 | N 3.34 | T 2.58 | L 3 | Y 3.06 | G 3.9 | I 3.05 | K 3.98 | S 3.82
R11: H 3.22 | D 2.31 | I 2.73 | E 2.39 | K 3.85 | L 2.85 | P 3.44 | Y 2.54 | W 1.79 | N 3.98 | T 3.29 | S 3.3 | C 2.36 | V 3.05 | M 3.47 | Q 4.39 | G 3.5 | A 3.25 | F 2.8
G8: W 2.25 | Y 3.05 | T 3.79 | V 3.31
